Measured values taken from article PMC7430637.

T1: FAM-H3(1–15)K9me3 peptide
T1 chain: ARTKQTARKSTGGKA

T2: H3(1-15)unmodified-FAM peptide (C-terminally fluorescein-labelled)
T2 chain: ARTKQTARKSTGGKA

T3: FAM-H3(1-15)K9me3 peptide (N-terminally fluorescein-labelled)
T3 chain: ARTKQTARKSTGGKA

T4: H3(1-15)K9me3-FAM peptide (C-terminally fluorescein-labelled)
T4 chain: ARTKQTARKSTGGKA


What was measured:
[1] = target: T1, FAM-H3(1–15)K9me3 peptide; assay: fluorescence polarisation; FAM-labelled H3(1–15) peptide, recombinant protein titrated; room temperature; as described in ref. 28
[2] = target: T1, FAM-H3(1–15)K9me3 peptide; assay: fluorescence polarization; details: chain shown with the change; read at the highest protein concentration of the titration, about 50 µM on the x axis; parent: est. 0.28; read off a plot
[3] = target: T2, H3(1-15)unmodified-FAM peptide …; assay: fluorescence polarisation; FAM-labelled H3(1-15) peptide, recombinant protein titrated; RT; as described (ref. 28)
[4] = target: T3, FAM-H3(1-15)K9me3 peptide (N-terminally …); assay: as above
[5] = target: T4, H3(1-15)K9me3-FAM peptide (C-terminally …); assay: as above

| Kd [1] | response (fraction bound) [2] | Binder | further results |
| --- | --- | --- | --- |
| 16.2 µM | – | hTTD-PHD (domain or fragment, modifications not checked) MWDETELGLYKVNEYVDARDTNMGAWFEAQVVRVTRKAPSRDEPCSSTSRPALEEDVIYHVKYDDYPENGVVQMNSRDVRARARTIIKWQDLEVGQVVMLNYNPDNPKERGFWYDAEISRKRETRTARELYANVVLGDDSLNDCRIIFVDEVFKIERPGEGSPMVDNPMRRKSGPSCKHCKDDVNRLCRVCACHLCGGRQDPDKQLMCDECDMAFHIYCLDPPLSSVPSEDEWYCPECRND | – |
| – | 0.87 | mTTD-PHD V1 P293A; P294A; P295A (protein) VWEDTDLGLYKVNEYVDVRDNIFGAWFEAQVVQVQKRALSEDEPCSSSAVKTSEDDIMYHVKYDDYPEHGVDIVKAKNVRARARTVIPWENLEVGQVVMANYNVDYPRKRGFWYDVEICRKRQTRTARELYGNIRLLNDSQLNNCRIMFVDEVLMIELPKERRPLIASPSQAAAALRNTGKSGPSCRFCKDDENKPCRKCACHVCGGREAPEKQLLCDECDMAFHLYCLKPPLTSVPPEPEWYCPSCRTDSSEVVQAGE | – |
| – | 0.97 | mTTD-PHD V1 R298A (protein) VWEDTDLGLYKVNEYVDVRDNIFGAWFEAQVVQVQKRALSEDEPCSSSAVKTSEDDIMYHVKYDDYPEHGVDIVKAKNVRARARTVIPWENLEVGQVVMANYNVDYPRKRGFWYDVEICRKRQTRTARELYGNIRLLNDSQLNNCRIMFVDEVLMIELPKERRPLIASPSQPPPALANTGKSGPSCRFCKDDENKPCRKCACHVCGGREAPEKQLLCDECDMAFHLYCLKPPLTSVPPEPEWYCPSCRTDSSEVVQAGE | – |
| – | 0.2 | mTTD-PHD V1 K302A; S303A (protein) VWEDTDLGLYKVNEYVDVRDNIFGAWFEAQVVQVQKRALSEDEPCSSSAVKTSEDDIMYHVKYDDYPEHGVDIVKAKNVRARARTVIPWENLEVGQVVMANYNVDYPRKRGFWYDVEICRKRQTRTARELYGNIRLLNDSQLNNCRIMFVDEVLMIELPKERRPLIASPSQPPPALRNTGAAGPSCRFCKDDENKPCRKCACHVCGGREAPEKQLLCDECDMAFHLYCLKPPLTSVPPEPEWYCPSCRTDSSEVVQAGE | – |
| – | – | hTTD-PHD module carrying the nine amino acid insertion of mLinker 2 V1 (domain or fragment, modifications not checked) MWDETELGLYKVNEYVDARDTNMGAWFEAQVVRVTRKAPSRDEPCSSTSRPALEEDVIYHVKYDDYPENGVVQMNSRDVRARARTIIKWQDLEVGQVVMLNYNPDNPKERGFWYDAEISRKRETRTARELYANVVLGDDSLNDCRIIFVDEVFKIERPGEGSPMVDNPMRPPPALRNTGKSGPSCKHCKDDVNRLCRVCACHLCGGRQDPDKQLMCDECDMAFHIYCLDPPLSSVPSEDEWYCPECRNDASEVVLAGE | Kd [3]: 4.5 µM; Kd [4]: > 50 µM; Kd [5]: 6.9 µM |
| > 100 µM | – | hTTD-PHD, mLinker2 V1* (domain or fragment, modifications not checked) MWDETELGLYKVNEYVDARDTNMGAWFEAQVVRVTRKAPSRDEPCSSTSRPALEEDVIYHVKYDDYPENGVVQMNSRDVRARARTIIKWQDLEVGQVVMLNYNPDNPKERGFWYDAEISRKRETRTARELYANVVLGDDSLNDCRIIFVDEVFKIERPGEGSPMVDNPMRPPPALRNTGKSGPSCKHCKDDVNRLCRVCACHLCGGRQDPDKQLMCDECDMAFHIYCLDPPLSSVPSEDEWYCPECRNDASEVVLAGE | – |
